The source of these data is PMC3141246 (Nucleic Acids Research, 2011).

This data set concerns the molecule itself. Description: native gel or EMSA.

B1: Rpp20, protein subunit of human nuclear RNase P (natural protein, UniProt O75817 1-140, looked up)
chain: MAENREPRGAVEAELDPVEYTLRKRLPSRLPRRPNDIYVNMKTDFKAQLARCQKLLDGGARGQNACSEIYIHGLGLAINRAINIALQLQAGSFGSLQVAANTSTVELVDELEPETDTREPLTRIRNNSAIHIRVFRVTPK
As to B1, the binding result was “binds”.
